Results: PMC10889901, “Deciphering the structure of a multi-drug resistant Acinetobacter baumannii short-chain dehydrogenase reductase” (PLOS ONE, 2024)

Target: the molecule itself
Assay: crystal structure; hanging-drop vapour diffusion, 23°C, 0.2 M lithium sulphate monohydrate, 0.1 M TRIS hydrochloride pH 8.5, 30% PEG 8,000; single protomer in the asymmetric unit, tetramer found by PISA analysis of the crystal

B1: Acinetobacter baumannii short-chain dehydrogenase reductase (enzyme)
chain: SNAMKLDLQNKIAVVSGSTSGIGLGIAKGLASAGATVVVVGRKQAGVDEAIAHIRQSVPEASLRGVDADLTTEQGAAALFAAEPKADILVNNLGIFNDEDFFSVPDEEWMRFYQVNVLSGVRLARHYAPSMVEQGWGRIIFISSESGVAIPGDMINYGVTKSANLAVSHGLAKRLAGTGVTVNAVLPGPTFTDGLENMLADAAAKAGRSTRDQADEFVKVLRPSSIIQRAAEVDEVANMVVYIASPLSSATSGAALRVDGGVVDTLV
notes: residues of the vector printed after the TEV cleavage site (ENLYFQ/SNA), left on the protein after the tag is removed; short-chain dehydrogenase reductase (SDR) of Acinetobacter baumannii; Vector pMCSG21; one protomer in the asymmetric unit, the tetramer comes from crystal symmetry (PISA); also called SDR; SDR enzyme; source: E. coli BL21(DE3) pLysS, purified (HisTrap, TEV cleavage, Superdex …)
- stoichiometry N: 4
